Experimental findings from paper PMC3742519 are described below.

In the assay the target is subtilisin A (Bacillus licheniformis) (Bacillus licheniformis) (UniProt P00780). Nature of the assay: enzyme inhibition kinetics (Lineweaver–Burk); substrate (AAPF) added to an equilibrium mixture of subtilisin A and rEs-DWD1; competitive inhibition, inhibitor at 0, 2.5 and 5 μM; 0.1 M Tris-HCl pH 8.0, 37 °C; p-nitroaniline read at 405 nm.
Sequence of UniProt P00780 (P00780 106-379): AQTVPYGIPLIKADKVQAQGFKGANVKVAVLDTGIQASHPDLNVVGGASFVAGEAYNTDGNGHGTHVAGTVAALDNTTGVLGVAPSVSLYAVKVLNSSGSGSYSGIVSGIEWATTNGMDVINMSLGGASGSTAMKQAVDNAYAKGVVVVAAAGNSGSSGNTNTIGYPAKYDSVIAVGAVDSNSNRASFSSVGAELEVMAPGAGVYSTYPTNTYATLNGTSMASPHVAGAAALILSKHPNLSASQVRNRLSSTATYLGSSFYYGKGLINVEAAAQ

A word on the Ki: it is a measure of affinity in units of concentration, obtained from inhibition or displacement. Take “recombinant Es-DWD1 (double WAP domain-containing protein from Eriocheir sinensis) (natural protein)”: the inhibition constant (Ki) is 4.12 nM.
